Measurements as given in the domain aggregation screens of Martell et al. (2025).

Test: soluble fraction after stress (log2 fold change); higher = more stays soluble; pooled small domains, quantitative proteomics
Conditions: stress: 75 degC
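Note: 20 min heating vs room temperature control held 20 min.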

## HMTVTKYGKKILEIVSSSRSHMTAEEIFDALRQTYPTVVLATVYNNLNRLWQDDLIRKVSVEGMPDRYD
  soluble fraction (log2): -1.28

## HMGGEIGSGKNGYVAFYKGKKVDVKADSMYGAQKTAAKYFNAKKEYDVNVVLAEVDGKQYVQS
  soluble fraction (log2): 0.547

## HMGTKDVNAAPSAVGRTYDEAIEILNGYKAGYLEEYSDTVPKGTVISQSVQDGQVVIVVSLGPKPS
  soluble fraction (log2): -0.136

## HMDMAENEEYKVIMGQAQQLAEQFFPADDNTRRIMLGQLKLENYSLYLLTKQILDEATKGQAAAAN
  soluble fraction (log2): -0.264

## HMSLNSELIARIENLIASIEDKRSWGYGFAESVLGQVQAGATLSPRQLEIIAKLEKENSYSVQLERQ
  soluble fraction (log2): -1.16

## HMQNNIEFTVLEEDAQKRLDVLLSEKTALSRSASASLIEEGGVLVNGRKEPKKYKPVRGEIITAILPE
  soluble fraction (log2): 0.504

## HMDDLIIQIELKQEGLEITGLKVLLKEDSVIDEQVKQTIRRKIERFLVNLYGNPNVYVSKFSMGI
  soluble fraction (log2): -0.296

## HMFDKNKPVVVEGENAEVALKKVSKYFNVPTEKLDYTLLGQKSAGLLGIGSKVYQFKVWLKREIP
  soluble fraction (log2): -0.249

## HMEIFYGDDRVYTVSLHGQNNFPFRKKTSDFDYGFEDGTGDEEYLRVLDVTLSRLENEQFDLLFFQAGV
  soluble fraction (log2): -0.068

## HMIPLKTEAIPVSYGDGAAIIRSLAVAFPSRTFHWDAQTRRIIGQALDEEWQVIRSLVWQLDIP
  soluble fraction (log2): -1.83

## HMSAGPQGRTPREDELTVGTKVYVSRVGASGVVSSDVSRGKVVVQVGALRLTAAVSELLLLDG
  soluble fraction (log2): -1.21

## HMIRALVPGQTLHGEIVGRNGGEVQVRLAEDMILNARVDQNIYLELGKDLTFEVKNNGATLTLSPL
  soluble fraction (log2): -0.42

## HMTESLVITVDPALHGLRLDRGLADALPDRSRSEVQRWIKEGRVQLHGAPAKPSLKLAAGDIVTIALPEE
  soluble fraction (log2): 0.442

## HMVSKSDVQRALEKVEPVLRKLGGSTVEKVRVMARQATLVFEMLKSWWKGEIDLPWKTVAAMTVTLLYL
  soluble fraction (log2): -0.451

## HMNLFNEIEKQYQALQDRSSASLVDLRHLLLDIEELVNSPDYQALAPDQRSTLQAARKELMRRIQKQEN
  soluble fraction (log2): 0.819

## HMAKDSQSADVLQAIFDGSKVLNGLALDQDMRWDLINGLVMSGRLGVEAIEAEAAKLAKLVEELEFR
  soluble fraction (log2): -0.976

## HMALKSGVIAHAVDDAVMRGLNVFTVSDDGSIVSMKDNDIVLGKDGKSPYSVSEWLEELKPNVPHWFG
  soluble fraction (log2): -0.166

## HMSMDYYSTLGVSKTASASDIKKAYRKLAMANHPDKGGDSAKFAKITEAYDVLKDPQKRNNYDQFGTA
  soluble fraction (log2): 0.0592

## HMQQELEEMESGNLVRTAIDSLPINQRTAFILSAYEELPIKEIASIMNRSEGAVEQLLQRAKMNLKKKIK
  soluble fraction (log2): 0.233

## HMSIASASVKEKIRDIVSSEPPQKPFSDAKIAEILAEDGIAIARRTVAKYREEIGIPTKSLRKR
  soluble fraction (log2): -0.0706

## HMQQLTQRELTLLRLLANGYNNRQIAEQLQLAESTVKNNLSALFQKIGVRDRTQAVLFAISQGLVP
  soluble fraction (log2): -1.04

## HMGNEEEEAIREAEEAIERVLEYGEPQELNPQNGFIRRLQHQLAEKSHLSSESVGVEPYRRVRISK
  soluble fraction (log2): 0.193

## HMKTLDAFFDQARDAYKKLKKDGDIDNLKVLRNQLQTVRETQGDAVRKKSKEEYRRLVDIIDDIDGLLAAF
  soluble fraction (log2): -0.123

## HMKLTEGETIFLNESDTADWKKIPGIGSVYASRIVKYRNLLGGFVSVNQLREVYGIDDELFAKIYPYI
  soluble fraction (log2): 0.085

## HMTKTRTEILEYLKQNWSVTVSASDIKKHLEEKEIKANTTTIYRYLDKLLAEHVIIKYADAGSERAVYQYS
  soluble fraction (log2): -2.23

## HMVAGQDPVKRQQILDGAKRVFLGVGFDAASMNDITREAGVSKGTIYVYFGSKEELFGALIDR
  soluble fraction (log2): -0.828

## HMSGEIPFPPAFKPSADHIAIASEKGINIETELLNFRDYHQARGTKLIDWNSAFRVWLRNAR
  soluble fraction (log2): -0.531

## HMKAKPTLLTPYEERLKGWLETDSRRPKRDRRTGLALFAKLQQEGFTGSYTRVTEYIRRWRDSGG
  soluble fraction (log2): -2.87

## HMNRPYETLFTGLTTDEASAIVGKLEEYGAADYKIEGDTIKVPAAQEPDLKAKLLLDGYPKS
  soluble fraction (log2): 0.231

## HMGLLGTDISAETMIGYFKKIDLGFDEETQEVIVPSWRQDLLRDADIAEEVARFYGYDNIPTTLPSGEST
  soluble fraction (log2): 0.0485

## HMVQVDNELTEFSVQSITRGIDALGEVTIRVTAPDGGVYTGRGADNDIIVSSTKAYLNALNRLLNDK
  soluble fraction (log2): 0.0321

## HMLKLEPYTINEINSLQELYDLGNVRALETLISIYKDKNQVYDTRFYVLDILSKYDNPLIQEALEESITN
  soluble fraction (log2): -1.39

## HMTSNEKARNAASAERRADIVAAARELYEEQGLSKTSVQDITNRMGVARSLFYHYFPDKEAVTSAVLDDYV
  soluble fraction (log2): 0.0232

## HMQQPIPGEAYLTRRPGSDHFQIAFTIDGHRVRESSGTSDKVAAAALAQKRYEEVWREIKLGEK
  soluble fraction (log2): -0.0824

## HMVEDPADNQKAADAVIKKISEIGEVTESSENLIKEARASYDALTDNQKELVTNYDVLVQAEAQLENIKD
  soluble fraction (log2): 0.282

## HMGKVNGFEITVIEGKNVVGSITPRQAIAKNSDGVIQLRGEQSFSATDQVLINELAFYIKSNNLKA
  soluble fraction (log2): -1.31

## HMLFKNASGTVVSRIQSQVDGQINIRTGSGNAPDYAFVAKPDGAVELYHNGTKQFETGSSGVLLP
  soluble fraction (log2): -0.406

## HMRKPDLTSVRTLIRSVSKLARHLKISPNGIYRWISVNRIPGAHVVKVANYYDVEIRDLVHLTGSD
  soluble fraction (log2): -1.49

## HMVAGHLSEKKGYYYAVLNYKDYTGKRKSKWVSTGLPVKGNKRRAEKILADIKRDFVPEEPKR
  soluble fraction (log2): -0.96

## HMATINGIEKYLSSGLIPGIGPHTAKKLVEKFGLDTLDIMQYNPDRLTEVEGIGDKKAAKISEAFQEQK
  soluble fraction (log2): 0.00381

## HMSGYSTLFTRMSREDAQAVVSLLQDDGIEYRYNDDTGTVQVPSATVDQTRAKLVSAGYPRS
  soluble fraction (log2): -0.268

## HMIDLGKSRTWHSENGRAIEARVINISEEQQTVEMQRVDGLKFELSWNQLSKADQTLLAEAAKKTALVA
  soluble fraction (log2): -0.0567

## HMEKRIIMLEELKKQVYEANMELPRRGLITYTWGNVSGIDRESGNFVIKPSGVDYDKLKPEDMVVMDL
  soluble fraction (log2): 0.249

## HMSSADIPFSRFIDDVEAQRVEKVTIDGVNVTGRYRSDGAAFKTIIPSQYDGLVPILRQNKVDITVKDA
  soluble fraction (log2): 0.24

## HMDIPITFEQLPAKAQAFVKQYFKIEEIASVWRDDDIHDQDYKVYFNDGSEIEFYANGDWEEV
  soluble fraction (log2): -0.827

## HMNIGELINKKRTELGLTLEEVGNAVGVSKSTVKKWEDGFISNMRRDKISKLAKVLEMNPVSLITGE
  soluble fraction (log2): 0.00376

## HMFAAIFADDSGFTTRSKRFGPYVEEIAADWQAVKQLSDEDAKQALVPLVKKIELALSTLQQFVSSV
  soluble fraction (log2): -0.166

## HMALQDKYKQLVDTATASGVANLQVREQDGVLYIDGEAPSGSVKDQLWDIYGKIDPNFLSGDVVMNINV
  soluble fraction (log2): -0.148

## HMSVLVLPMLKELTHEDREVVELFYLNDMSVREIALIISVPIGTVKSRLHRARAQLKHQIVNLNQ
  soluble fraction (log2): -3.76

## HMQNNTIAFSKFLQEVDNGRVVQVEIQGNNINGILSDGSKFNTYSPNYPALVEKLSEKNVNIVASPV
  soluble fraction (log2): 0.0941

## HMGRSYTIKSGDTLWAIATRYYGNGAQYSKIYNANKGTIESVAKSRGFRSSQNGHWIFPGTSITI
  soluble fraction (log2): -0.722

## HMYDEKTLRKAVLDYVRDNDDGRLDLMKIDSYLTSRYGNIDYAALGYNRLSMFISSFPELRRNSNYVTLRK
  soluble fraction (log2): -1.44

## HMRKIKDVLRLKLHAGLSHERVAASLNISKGVVAKYTSLAAAAGLDWPTVERLSEAALERRLV
  soluble fraction (log2): -0.181

## HMGDGRVGVITASIAYEYAKEVFPEGTSFLKLGLTFPLPMDLIRDFASKVEKLYVIEELEPL
  soluble fraction (log2): -0.122

## HMTNYYTVTFKEGDTVLKEVSVHSGDGVPYAVAPKRDDIVGWSYNGNTYTTDLNTLKIKKEVTFTAVT
  soluble fraction (log2): 0.235

## HMKEFIPPVLDDVLKFFSGSLLPDWENQGRLFFSHYNSQGWRKGTGVQVTDWDSLANKWILDEKIKRDARS
  soluble fraction (log2): -0.489

## HMGTPEQSAQFEQVLEELKNVPGPVMKAMQRAQDIYGYLPIEIQSRIGQAFGVSLEEVYGIATFYSQFNL
  soluble fraction (log2): -2.55

## HMESRTQVYDFYKDLFREKRRPLRAEEMLSALKSQRGIVGVNQYQIIEQHGIVRLSGSGRSALYWDTDLGS
  soluble fraction (log2): -2.69

## HMSAERFDFRIGPELAGKRFDQALAEALPQFSRSRLSTWIKDGRATLNGATMRPKDSVHAGDTVVVNAE
  soluble fraction (log2): -0.186

## HMSNTIFGINGPVVTVASKDFSMQEMVYVGNERLVGEVISIDDDLTTIQVYEVTTGLKPGEPVVGTGSAM
  soluble fraction (log2): -0.34

## HMPGDIRKAAILLMSLPREQAAQVLARLDPKQVEAVTIEIARLGTVTPDEQEQALKEFSQANPA
  soluble fraction (log2): 0.0238

## HMEKIDYLSIGHRLRAYRIASSLKAEDVAESLGISRAAVYRLEKGEIVKIETLDNLARLLNTSLSSLLG
  soluble fraction (log2): -3.37

## HMLSYNINEESKSSIMNVNVLKNNFASIDVEKLQNIIFTTFKKYNYYLNDFSSMNLLLHLLIIVDREL
  soluble fraction (log2): 0.418

## HMLDKEDNANAGKTLLERELSRAHLSDVEHRELAQRLHLASEQELYIKIGSGDLSIIQALNRAKEFKDT
  soluble fraction (log2): -0.0269

## HMAPQSAAAILRYLSSGAIRGVGPATAQRIVERFGTDSLEIIQNRPKELAAINGISINKALSISEEYAKQY
  soluble fraction (log2): -0.741

## HMEHTPYLTEREADVVRLLVSGLDTAQIAQRLGIKTATVTAHKKHIFLKIGVRNTTQLVAWALIR
  soluble fraction (log2): -2.3

## HMVMSVGENIAYFRKKLGLTQEMLSERIGVTAQAVSKWENGVTNPDISLLPRISEALGIGIGDLFD
  soluble fraction (log2): -1.94

## HMSTLGIRIKHYRTDSNLTQKELAGLINVKRDALANWETDRALPDVMNLKKLAEVFQVSTDELLQV
  soluble fraction (log2): -1.02

## HMVVEDDTVLQAVKQAIEENPEAVSDYFEGKSKALNFLVGQVMRITRGKADPAKTNQMVVEELKNR
  soluble fraction (log2): 0.237

## HMPWLIAVTVDGVNLPRFLRRAGEMGLLLTGVRIRGKHLSAFAREDDVPPLRMMAENGGWRFSVGN
  soluble fraction (log2): -2.23

## HMAGHKVDFSELPARSQAFIGKNFPTEMVKNVEMERKDAKDHYTVLLSNGTKVMFDGTSGELTGV
  soluble fraction (log2): 0.0762

## HMLFQQPATMIGKIGVAMSDLRPSGKIKIDDEWYDGQSEGDYILKGQEIIVVQVMNAYLIVRL
  soluble fraction (log2): 0.0841

## HMIQSEQIPFSKFLKEVDSGRVVQVEIQGNNINGVLSDGSKFKTYSPNYPELVGKLSDKGVSIVASPV
  soluble fraction (log2): 0.091

## HMERQAEAWTNRASALISLGRDEEALEAADRAIELDPRLSKAWIDRSTALSNLGRNDEANEAIQMAMFL
  soluble fraction (log2): -0.12

## HMEKLNERLLYLRKNANLTQQQLADKLHISNKTISQWETGRTLPDIVMLVRLAEIYDMKLDELLNQ
  soluble fraction (log2): -1.1

## HMQAATQVNIVGLFSNKAVVIINGGKPKTLSVGQTSEGVKLLAADSQTATLQIEGKTQQLGMGQAASVGG
  soluble fraction (log2): -0.758

## HMNNSVAYSTFLNDIRTNTLKDVDMTSNSETINVTKKDGTKYQTVMPMYDRDLLADLSKTDATVTGQP
  soluble fraction (log2): 0.562
